Test results published in patent US20230250154A1 (CYTONICS, published 2023).
Positions count from the first letter of the chain named. Numbers in names are those of the source.

B1: Variant A2M, bait region SEQ ID NO 101 (other)
chain: SVSGKPQYMVLVPSLLHTETTEKGCVLLSYLNETVTVSASLESVRGNRSLFTDLEAENDVLHCVAFAVPKSSSNEEVMFLTVQVKGPTQEFKKRTTVMVKNEDSLVFVQTDKSIYKPGQTVKFRVVSMDENFHPLNELIPLVYIQDPKGNRIAQWQSFQLEGGLKQFSFPLSSEPFQGSYKVVVQKKSGGRTEHPFTVEEFVLPKFEVQVTVPKIITILEEEMNVSVCGLYTYGKPVPGHVTVSICRKYSDASDCHGEDSQAFCEKFSGQLNSHGCFYQQVKTKVFQLKRKEYEMKLHTEAQIQEEGTVVELTGRQSSEITRTITKLSFVKVDSHFRQGIPFFGQVRLVDGKGVPIPNKVIFIRGNEANYYSNATTDEHGLVQFSINTTNVMGTSLTVRVNYKDRSPCYGYQWVSEEHEEAHHTAYLVFSPSKSFVHLEPMSHELPCGHTQTVQAHYILNGGTLLGLKKLSFYYLIMAKGGIVRTGTHGLLVKQEDMKGHFSISIPVKSDIAPVARLLIYAVLPTGDVIGDSAKYDVENCLANKVDLSFSPSQSLPASHAHLRVTAAPQSVCALRAVDQSVLLMKPDAELSASSVYNLLPEKDLTGFPGPLNDQDDEDCINRHNVYINGITYTPVSSTNEKDMYSFLEDMGLKAFTNSKIRKPKMCPQLEQYEMHGPEGLRVGEEEGGGFYESDVMGRGHARLVHVEEPHTKLRKYFPETWIWDLVVVNSAGVAEVGVTVPDTITEWKAGAFCLSEDAGLGISSTASLRAFQPFFVELTMPYSVIRGEAFTLKATVLNYLPKCIRVSVQLEASPAFLAVPVEKEQAPHCICANGRQTVSWAVTPKSLGNVNFTVSAEALESQELCGTEVPSVPEHGRKDTVIKPLLVEPEGLEKETTFNSLLCPSGGEVSEELSLKLPPNVVEESARASVSVLGDILGSAMQNTQNLLQMPYGCGEQNMVLFAPNIYVLDYLNETQQLTPEIKSKAIGYLNTGYQRQLNYKHYDGSYSTFGERYGRNQGNTWLTAFVLKTFAQARAYIFIDEAHITQALIWLSQRQKDNGCFRSSGSLLNNAIKGGVEDEVTLSAYITIALLEIPLTVTHPVVRNALFCLESAWKTAQEGDHGSHVYTKALLAYAFALAGNQDKRKEVLKSLNEEAVKKDNSVHWERPQKPKAPVGHFYEPQAPSAEVEMTSYVLLAYLTAQPAPTSEDLTSATNIVKWITKQQNAQGGFSSTQDTVVALHALSKYGAATFTRTGKAAQVTIQSSGTFSSKFQVDNNNRLLLQQVSLPELPGEYSMKVTGEGCVYLQTSLKYNILPEKEEFPFALGVQTLPQTCDEPKAHTSFQISLSVSYTGSRSASNMAIVDVKMVSGFIPLKPTVKMLERSNHVSRTEVSSNHVLIYLDKVSNQTLSLFFTVLQDVPVRDLKPAIVKVYDYYETDEFAIAEYNAPCSKDLGNADYKDDDDKGASHHHHHH
B2: Variant A2M, bait region SEQ ID NO 99 (other)
chain: SVSGKPQYMVLVPSLLHTETTEKGCVLLSYLNETVTVSASLESVRGNRSLFTDLEAENDVLHCVAFAVPKSSSNEEVMFLTVQVKGPTQEFKKRTTVMVKNEDSLVFVQTDKSIYKPGQTVKFRVVSMDENFHPLNELIPLVYIQDPKGNRIAQWQSFQLEGGLKQFSFPLSSEPFQGSYKVVVQKKSGGRTEHPFTVEEFVLPKFEVQVTVPKIITILEEEMNVSVCGLYTYGKPVPGHVTVSICRKYSDASDCHGEDSQAFCEKFSGQLNSHGCFYQQVKTKVFQLKRKEYEMKLHTEAQIQEEGTVVELTGRQSSEITRTITKLSFVKVDSHFRQGIPFFGQVRLVDGKGVPIPNKVIFIRGNEANYYSNATTDEHGLVQFSINTTNVMGTSLTVRVNYKDRSPCYGYQWVSEEHEEAHHTAYLVFSPSKSFVHLEPMSHELPCGHTQTVQAHYILNGGTLLGLKKLSFYYLIMAKGGIVRTGTHGLLVKQEDMKGHFSISIPVKSDIAPVARLLIYAVLPTGDVIGDSAKYDVENCLANKVDLSFSPSQSLPASHAHLRVTAAPQSVCALRAVDQSVLLMKPDAELSASSVYNLLPEKDLTGFPGPLNDQDDEDCINRHNVYINGITYTPVSSTNEKDMYSFLEDMGLKAFTNSKIRKPKMCPQLEQYEMHGPEGLRVGGPPGLAPGFYESDVMGRGHARLVHVEEPHTKLLRKYFPETWIWDLVVVNSAGVAEVGVTVPDTITEWKAGAFCLSEDAGLGISSTASLRAFQPFFVELTMPYSVIRGEAFTLKATVLNYLPKCIRVSVQLEASPAFLAVPVEKEQAPHCICANGRQTVSWAVTPKSLGNVNFTVSAEALESQELCGTEVPSVPEHGRKDTVIKPLLVEPEGLEKETTFNSLLCPSGGEVSEELSLKLPPNVVEESARASVSVLGDILGSAMQNTQNLLQMPYGCGEQNMVLFAPNIYVLDYLNETQQLTPEIKSKAIGYLNTGYQRQLNYKHYDGSYSTFGERYGRNQGNTWLTAFVLKTFAQARAYIFIDEAHITQALIWLSQRQKDNGCFRSSGSLLNNAIKGGVEDEVTLSAYITIALLEIPLTVTHPVVRNALFCLESAWKTAQEGDHGSHVYTKALLAYAFALAGNQDKRKEVLKSLNEEAVKKDNSVHWERPQKPKAPVGHFYEPQAPSAEVEMTSYVLLAYLTAQPAPTSEDLTSATNIVKWITKQQNAQGGFSSTQDTVVALHALSKYGAATFTRTGKAAQVTIQSSGTFSSKFQVDNNNRLLLQQVSLPELPGEYSMKVTGEGCVYLQTSLKYNILPEKEEFPFALGVQTLPQTCDEPKAHTSFQISLSVSYTGSRSASNMAIVDVKMVSGFIPLKPTVKMLERSNHVSRTEVSSNHVLIYLDKVSNQTLSLFFTVLQDVPVRDLKPAIVKVYDYYETDEFAIAEYNAPCSKDLGNADYKDDDDKGASHHHHHH
B3: Variant A2M, bait region SEQ ID NO 102 (other)
chain: B2 chain with P685Y, L688S, A689S, P690R

biological target: T1, ADAMTS4 (human, UniProt O75173 213-685, limits assumed); experiment: cell-based or functional assay
T1 sequence (looked up): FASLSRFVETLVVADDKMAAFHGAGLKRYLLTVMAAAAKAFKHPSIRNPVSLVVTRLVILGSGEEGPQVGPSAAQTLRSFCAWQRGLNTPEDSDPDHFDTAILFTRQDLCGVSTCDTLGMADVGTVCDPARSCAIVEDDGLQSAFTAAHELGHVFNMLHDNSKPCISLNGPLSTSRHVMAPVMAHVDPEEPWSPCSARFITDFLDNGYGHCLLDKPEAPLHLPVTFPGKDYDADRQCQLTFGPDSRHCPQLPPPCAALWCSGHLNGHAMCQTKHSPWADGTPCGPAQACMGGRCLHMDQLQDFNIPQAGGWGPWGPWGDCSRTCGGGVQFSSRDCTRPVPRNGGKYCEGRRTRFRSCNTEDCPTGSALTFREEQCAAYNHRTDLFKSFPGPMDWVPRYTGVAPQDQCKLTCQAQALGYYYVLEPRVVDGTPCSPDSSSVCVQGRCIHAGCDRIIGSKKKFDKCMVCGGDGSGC

In order of rising “Protease Inhibition (% of WT)” value:
1. B2  63 % of WT
2. B1  168 % of WT
3. B3  187 % of WT

biological target: T2, ADAMTS5 (human, UniProt Q9UNA0 262-622, limits assumed); experiment: cell-based or functional assay
T2 sequence (looked up): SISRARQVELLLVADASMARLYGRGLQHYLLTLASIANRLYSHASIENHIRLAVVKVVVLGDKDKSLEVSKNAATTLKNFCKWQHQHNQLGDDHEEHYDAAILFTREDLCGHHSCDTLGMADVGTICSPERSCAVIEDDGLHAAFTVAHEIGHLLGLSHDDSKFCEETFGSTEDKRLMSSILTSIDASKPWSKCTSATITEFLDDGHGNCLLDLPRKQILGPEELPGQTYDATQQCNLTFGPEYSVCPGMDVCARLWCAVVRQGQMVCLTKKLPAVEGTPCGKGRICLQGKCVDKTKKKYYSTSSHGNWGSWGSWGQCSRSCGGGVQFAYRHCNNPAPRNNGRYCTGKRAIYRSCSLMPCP

In order of rising “Protease Inhibition (% of WT)” value:
1. B2  87 % of WT
2. B1  97 % of WT
3. B3  354 % of WT

biological target: MMP13 (human, UniProt P45452 104-471, limits assumed); experiment: cell-based or functional assay

In order of falling “Protease Inhibition (% of WT)” value:
1. B3  127 % of WT
2. B1  124 % of WT
3. B2  64 % of WT
